Results on 3 substances are retold here after patent US11401512.

Test in all cases: cell_activity
For data set [1], the system named is 47898-FLAG ZFN (right, albumin) (synthetic).
For data set [2], the system named is 71728 ZFN (right, albumin) F3 m5Q; FokI P478S (synthetic).
Data set [3] concerns SBS47171-FLAG ZFN (left, albumin) (synthetic).
Data set [4] concerns 71557 ZFN (left, albumin) F1 m5Q, F3 m5Q; FokI N542D (synthetic).
Where [5] appears, read: off-target, pair 47171/47898, AAV 600K MOI.
Where [6] appears, read: off-target, pair 71557/71728, AAV 600K MOI.

With “CCTATCCATTGCACTATGCTTTATTTAA (double strand) [albumin right ZFN half-site]”, the activity is 25.4 % indels in data set [1] (with 47171, primary human hepatocytes, AAV 600K MOI, day 10) and 44.2 % indels in data set [2] (with 71557, primary human hepatocytes, AAV 600K MOI, day 10).
Consider SMCHD1 off-target site, for which the activity was determined as 0.36 % indels in data set [1] (setting [5]), 0.34 % indels in data set [2] (setting [6]), 0.36 % indels in data set [3] (setting [5]) and 0.34 % indels in data set [4] (setting [6]).
“TTTGGGATAGTTATGAATTCAATCTTCA (double strand) [albumin left ZFN half-site (A/T allele)]”: the activity in data set [3] (with 47898, primary human hepatocytes, AAV 600K MOI, day 10) worked out at 25.4 % indels; in data set [4] (with 71728, primary human hepatocytes, AAV 600K MOI, day 10), 44.2 % indels.
